T1: SpoVG (Borrelia burgdorferi, UniProt O51726 1-97)
T1 sequence: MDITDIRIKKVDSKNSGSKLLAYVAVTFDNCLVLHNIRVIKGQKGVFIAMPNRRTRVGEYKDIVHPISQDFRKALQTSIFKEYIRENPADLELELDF


Experiments:
[1] = target: T1, SpoVG; test: EMSA
[2] = target: T1, SpoVG; test: competition
[3] = target: T1, SpoVG; test: competition; remark: listed apart in the source

| Binder | Kd [1] [nM] | IC50 [2] [nM] | binding result [3] |
| --- | --- | --- | --- |
| UAUGUACUUUUUGCGGGAGGCUUAUAA (ssRNA) [spoVG RNA] | 59 | 1030 | – |
| UAUGUACAAAAAGCGGGAGGCUUAUAA (ssRNA) [RNA-03] | – | – | binds |
| UAUGUACUUUAAGCGGGAGGCUUAUAA (ssRNA) [RNA-17] | – | – | binds |
| UAUGUACUUAAAGCGGGAGGCUUAUAA (ssRNA) [RNA-20] | – | – | binds |
